Test results from patent US20250215092A1 (ZHEJIANG NANOMAB TECHNOLOGY CENTER, published 2025).

B1: E004 VHH-IgG4 antibody (antibody, V domains shown, not shown: a dimerising Fc or GST)
VH: EVQLVESGGGLAQSGGSLRLACEASGFPFETYAMSWARQTPGNEPEWVAGIFPDGKHTAYAHSVKGRFTISRVNANNTVYLQMDSLKPEDTAVYYCAKDLPFFATPSFYIGYWGQGTLVTVSS
B2: E008 VHH-IgG4 antibody (antibody, V domains shown)
VH: EVQVVESGGGLVQSGGSLTLSCTSSGLPLLDYAIGWFRQAPGKEREAVSAISISEGSTYYTDSVRGRFTISRDNNKNKVYLRMDNLKPEDTAVYYCAADKTDIGFWLLVGGAGGGEVRYEYWGQGTQVTVSS
notes: VHH fused to IgG4 (VHH-IgG4), expressed in ExpiCHO, protein A purified; not shown: human IgG4 constant part from the pCDNA3.4-IgG4 vector

Experiments:
[1] = target: T1, EGFR on SKOV3 and Aspc-1 tumor cells (human, UniProt P00533); assay: flow cytometry on Aspc-1 tumor cells, anti-human IgG PE, MFI, curve fit; unit from the concentration axis and paragraph 62; the curve is barely above Isotype 2: MFI at most about 1500 [table]
T1 construct: endogenous, on the cell surface; the cell line is named under assay; also called tumor cell EGFR
Protocol: Two kinds of tumor cells, SKOV3 and Aspc-1, expressing EGFR were respectively plated in 96 well plates, with 3×10⁵ cells per well, and then the tumor cells were incubated with gradient diluted VHH-IgG4 antibody. After incubation on ice for half an hour, anti human IgG PE (Jackson Immuno Research, Code: 109-117-008, Lot:145501) was added for incubation, and then CytoFLEX flow cytometry was used for detection. The EC50 of the antibody was calculated by curve fitting.

[2] = target: T2, human EGFR.His antigen (Acro, Cat #EGR-H522a) (human, UniProt P00533 25-645); assay: competition ELISA: EGFR his tag protein coated, antibody titrated together with Human EGF-mouse IgG2a Fc, bound EGF detected with HRP anti-mouse IgG, unit taken from the concentration axis (paragraph 62 says nM); OD450 falls from about 2.4 to a plateau of about 0.4 [table]
T2 construct: extracellular domain; Bought protein; also called EGFR his tag protein; full-length EGFR extracellular domain protein; not shown: His tag
Protocol: Briefly, EGFR his tag protein was diluted with PBS to 2 μg/mL, and 100 μL of the antigen was added to each well of an ELISA plate and coated overnight at 4° C. The next day, the plates were washed twice with PBST (containing 0.5% TWEEN-20), and then blocked with 3% BSA at 37° C. for 1.5 h, followed by two washes with PBST. […] VHH-IgG4 antibodies were diluted to 2000 nM and then serially diluted 4-fold for 8 gradients. […] After washing 3 times, HRP goat anti-mouse IgG (Goat anti-Mouse IgG) (H+L) antibody (Abcam, cat #ab205719) diluted at 1:3000 was added to each well, and the plate was incubated at 37° C. for 40 min. The plates were then washed 3 times with PBST, and 100 μL of TMB substrate was added to each well and allowed to react for 3-5 min. The reaction was stopped by adding 100 μL of 3N hydrochloric acid per well. After stopping the reaction, the optical density at 450/650 nm was measured using a Tecan microplate reader. The dose-response curve was plotted, and the IC50 was calculated using GraphPad Prism 8.0 software.

Binder | EC50 [1] [nM] | IC50 [2] [µg/mL]
B1 | 3.6 | 
B2 |  | 0.056
